B1: Apoptosis-associated speck-like protein containing a CARD, residues 114 to 194; numbered along this chain, Q9ULZ3 (parent)
chain: FIDQHRAALIARVTNVEWLLDALYGKVLTDEQYQAVRAEPTNPSKMRKLFSFTPAWNWTCKDLLLQALRESQSYLVEDLER

Variants of: B1
Assay: abundance fitness (aPCA) (normalised: wild type 0, dead -1); higher = more abundant; growth selection in yeast, the domain comes from the species named
Conditions: Homo sapiens

Abundance fitness, by site and new letter:
T53: Y 0.11, I -0.055, R -0.466, D -0.855, K -0.957, L 0.071, V 0.072, M 0.015, F -0.342, P -1.03, C -0.347, H -0.394, G -0.663, E -0.126
S51: Q -0.205, D -0.169, K -0.96, P -0.796, A -0.422, G -0.587, Y -0.843, T -0.141, F -0.633, R -0.839, E -0.012, W -0.849, I -0.904, L -0.938, C -0.429, N -0.806, M -0.321
K45: R -0.317, V -0.609, W -0.852, Q -0.695, A -0.615, D -1, G -0.768, T -0.764, C -0.887, H -1.06, M -0.34, S -0.273, L -0.918, P -0.803, E -0.846
P54: E 0.078, K 0.047, H -0.196, M -0.292, C -0.254, V -0.197, S 0.044, I -0.189, T 0, W -0.084, G -0.017, A 0.045, L -0.328, Y -0.166, Q -0.064, F 0.057, D 0.132, R -0.026
A55: E 0.087, K 0.016, N 0.181, S 0.107, I -0.286, G 0.082, V -0.416, T -0.061, D -0.061, F -0.36, Y -0.077, Q -0.062, P -0.325, H -0.005, M -0.162
T41: N 0.045, V -0.707, P -0.845, Y -0.519, S -0.199, Q -0.517, C -0.28, M -0.701, A -0.52, R -0.907, W -0.653, E -0.782, F -1.2, K -0.755, G -0.484, L -0.834
F52: Y -0.105, W -0.696, T -1.03, V -0.649, R -0.824, S -0.948, G -0.943, M -0.454, C -0.966, K -1, P -0.979, D -0.996, N -0.836, A -0.732, Q -0.427, I -0.53
P40: A -0.256, G -0.425, S -0.291, N -0.419, W -0.832, T -0.202, K -0.123, M -0.896, L -0.587, I -0.339, E -0.257, F -0.912, Y -0.633, R -0.167, D -0.38, C -0.434
E39: S -0.842, N -0.26, R -0.692, T -0.789, I -0.909, M -0.129, K -0.549, L -0.303, Q -0.293, Y -0.49, P -0.914, V -0.815, W -0.946
R47: L -0.319, W -0.497, G -0.62, N -0.214, V -0.155, Y -0.872, P -0.814, H -0.452, A 0.013, F -0.786, T -0.04, D -0.517, K -0.008, I -0.254, E 0.037, Q -0.051, M -0.166, S -0.197, C -0.139
P43: C -0.147, V -0.096, A -0.045, Q 0.065, I -0.566, M -0.138, F -0.395, G -0.27, W -0.313, H -0.221, T 0.04, N -0.241, Y -0.593, E 0.07, S -0.061, R -0.091, K -0.114, L -0.263
W56: C -0.957, R -0.574, Q -0.598, K -0.684, Y -1.01, L -0.568, G -0.838, V -0.694, M -0.108, I -0.434, T -0.74, A -0.899, E -1.13, D -0.626, F -0.506, H -0.371, N -0.83, S -0.813
N57: E -0.32, V -0.431, K -0.492, S 0.018, Y -0.852, M -0.399, T -0.106, I -0.311, L -0.178, P -0.233, C -0.269, R -0.731, D 0.092, W -0.468, H -0.279
K48: C -0.667, V -0.469, S -0.891, G -0.877, P -0.71, L -0.347, W -0.35, Y -1.05, N -0.802, R -0.185, F -0.585, A -0.745, I -0.779, T -0.635, D -0.745, Q -0.674, E -0.963, H -0.655, M -0.221
T59: F -0.023, C -0.135, G -0.019, D -0.007, E 0.269, A 0.109
F50: S -0.822, K -1.02, C -0.937, L 0.182, H -0.948, M 0.113, N -0.775, P -0.607, D -1.06, W -0.693, Q -0.871, V -0.536, Y 0.015, R -0.81, E -0.799, I -0.418
S44: A 0.116, F -0.842, C -0.268, R -0.064, N -0.511, V -0.947, I -0.398, G -0.063, W -0.531, Y -1.01, M 0.024, K -0.265, D 0.091, T -0.097, P -0.868, L 0.031, Q 0.061
N42: Y -0.896, W -0.582, D -0.221, H -0.624, L -0.337, T -0.336, Q -0.488, A -0.188, C -0.616, I 0.082, V -0.596, F -0.372, K -0.74, P -0.306, G -0.331, R -0.562, E -0.337, M -0.48, S -0.445
W58: A 0.357, E 0.376, N 0.105, I -0.217, C 0.047, F 0.105, R 0.234, M 0.167, S 0.306, Q 0.174, K 0.19, P 0.145, V 0.174, D 0.453, T 0.319, G 0.205, Y 0.203, H 0.289
L49: H -0.664, M -0.888, P -0.73, S -0.798, N -0.209, E -0.979, A -0.93, G -0.79, V -0.837, Y -0.846, I -0.444, D -0.914, F -0.811
M46: C -1.02, P -0.542, E -0.831, F -0.807, V -0.353, T -0.77, G -0.949, S -0.933, R -0.653, Y -0.707, A -0.679, Q -0.717, D -1.03, W -0.696, I -0.778, L -0.298
